What was measured:
[1] = biological target: T1, recombinant human platelet derived growth factor (PDGF-BB) (human, UniProt P01127 82-190); assay: BIAcore SPR, cytokine immobilised via primary amines, antibody as analyte
T1 construct: also called human PDGF-BB; PDGF-BB cytokine
Method: BIAcore analysis of the original and humanized anti-PDGF clones was performed according to standard procedures. The cytokine was immobilized on the BIAchip by chemical linking via primary amines and the binding behavior of the antibodies was analyzed over 30 min.

[2] = biological target: T1, recombinant human platelet derived …; assay: competition ELISA: antibody pre-incubated with 10 ng/ml PDGF-BB, then added to a plate coated with PDGF receptor beta/Fc; receptor-bound PDGF-BB detected by biotinylated anti-PDGF-BB antibody and streptavidin-alkaline phosphatase, OD405; blocked partner: PDGF receptor beta/Fc
Method: The ability of the rabbit scFvs to compete with the PDGF-1 receptor for binding to the PDGF-BB cytokine was determined in a competition assay. Binding of the scFvs to their target epitope on the PDGF-BB cytokine prevents PDGF-BB binding to the PDGF receptor coated on the plates. High protein binding 96-well plates were coated with 10 ng/well of recombinant human PDGF receptor beta/Fc chimera (R&D Systems, MN) in PBS overnight at 4° C. The plates were blocked with 5% sucrose/1% BSA/PBS for 1 h at 37° C. Serial dilutions of purified anti-PDGF-BB antibody were incubated with 10 ng/ml of recombinant human PDGF-BB at room temperature for 30 minutes before being added to the blocked and washed plates. After 2 h at room temperature, the plates were washed with PBS/0.05% Tween followed by another 2-hour incubation with biotinylated anti-PDGF-BB antibody (R&D Systems, MN) at room temperature. Next, streptavidin-alkaline phosphatase (Pierce, Rockford, Ill.) was added to the plates and incubated for 30 minutes at room temperature. The plates were washed 3×with PBS/0.05% Tween and 3× with PBS. Sigma 104 substrate suspended in PNPP buffer was added after the final wash step and the signal at OD405 was determined. […] F3 was then selected for humanization.

rat PDGF BB = rat PDGF BB (rat, UniProt Q05028 74-182); assay: solid phase ELISA: plate coated with the named form of PDGF, serial dilutions of mouse C1 Fab (axis in dilutions 1/x, no mass unit), OD
Sequence of rat PDGF BB (Q05028 74-182): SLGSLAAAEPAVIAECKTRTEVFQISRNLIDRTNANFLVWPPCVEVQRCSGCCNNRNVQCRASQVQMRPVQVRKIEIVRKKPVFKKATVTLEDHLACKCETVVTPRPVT

T1 sequence (P01127 82-190): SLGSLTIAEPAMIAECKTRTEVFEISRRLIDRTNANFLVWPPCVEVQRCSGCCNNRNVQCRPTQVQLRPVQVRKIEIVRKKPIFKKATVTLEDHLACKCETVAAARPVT

B1: C1 mouse anti-PDGF Fab (Fab, V domains shown)
VH: QVLLEQSGSELVRPGASVKLSCKASGYTFTSTWMNWVKKRPDQGLEWIGRIDPYDSETHYNQKFKDKAILTVDKSSSTAYMQLSRLTSEDSAVYYCARGGHMITPAMDYWGQGTSVTVSS
VL: VQVLTQSPAIMSASPGEKVTITCTASSSVSYMHWFQQKPGTSPKLLIYSASNLASGVPARFSGSGSGTSYSLTISRMEAEDAATYYCQQRSSYPWTFGGGTKLEIKR
notes: Mouse light chain and heavy chain Fd cloned in phagemid pRL4; purified over a Ni column; detected by an HA tag; also called mouse C1; murine antibody C1
Binder B1 has a Ka [1] of 2.31e+09 M⁻¹, a Kd [1] of 0.433 nM and a koff [1] of 4.62e-05 s⁻¹. For the same binder, the kon [1] was 107000 M⁻¹ s⁻¹, the “IC50 (read off the curve)” value [2] was about 0.4 mg/L and the binding result (rat PDGF BB) was “no binding”.
